Assay results reported in patent US11419921B2, “Methods of treating neurological disorders” (EnClear Therapies, Inc., priority 2018, dated 2022).

Tests used:
(GR)10 [1] = assay: (GR)10 digestion with immobilized proteases in human cerebrospinal fluid (CSF); assay type: biochemical; conditions: immobilized enzyme
Procedure: (§1) Protease solutions were prepared at 2 mg/mL in sterile PBS with calcium, magnesium and 200 μL ([…]) were applied to 100 μL of pre-washed NHS-activated agarose resin in 0.8 mL centrifuge columns. Reactions were left 1.5 hour at room temperature with end-to-end mixing, after which resins were washed with 12 resin volumes of PBS. Unreacted sites were blocked with 500 μL of 1M ethanolamine for 15 minutes at room temperature and resins were further washed with 24 resin volumes. Resins were stored at 4 degrees in 500 μL of PBS containing 0.05% sodium azide as preservative.
200 μM of (GR)10 were diluted in human cerebrospinal fluid (CSF) and 400 μL were applied to each immobilized proteases. The reaction was incubated 5 minutes at room temperature with end-to-end mixing. Columns were spun down 1 minute at 1,000 Xg to recover digested GR dipeptides. Columns were washed with 12 resin volumes of PBS. The procedure was repeated with 60 minutes digestion time. 100 μL of each samples were transferred to a clean tube, flash-frozen and subsequently used for LC/MS quantification of GR repeats of different lengths. The remaining 300 μL of each samples were flash-frozen and used to assess neuron toxicity.
(GR)10 was digested with exemplary immobilized enzymes as described above in the subsection titled “(GR)10 digestion with immobilized proteases in CSF” of Example 3. Clostripain experiments were conducted with and without DTT activation (no DTT during digestion). The results obtained after 5 and 60 minutes of reaction time are presented in Table 25 and shown in FIG. 5 (commercial and in-house immobilized trypsin), FIG. 6 (immobilized elastase, FIG. 7A (immobilized clostripain without DTT) and FIG. 7 (immobilized clostripain with 2.5 mM DTT).

(GR)10 [2] = assay: (GR)10 digestion with immobilized proteases (NHS-activated agarose resin) in PBS; assay type: biochemical; conditions: normalized
Procedure: as §1
110 μL of 50 μM (GR)10 dipeptide repeats prepared in PBS were added to each immobilized protease and incubated 5 minutes at room temperature with end-to-end mixing. Columns were spun down 1 minute at 1,000 Xg to recover digested GR dipeptides. Columns were washed with 110 μL of PBS to increase (GR)10 recovery. This procedure was repeated with 60 minutes digestion time. 100 μL of each samples were transferred to a new tube and 5 μL of 10% TFA followed by 300 μL of Dilution Solution were added. The reaction mixtures were analyzed by LC/MS to determine the concentration of GR repeats of different lengths.

[3] = resin wash from 60 min reaction

B1: Commercial Trypsin: commercial immobilized trypsin, presumably the ThermoFisher immobilized TPCK-trypsin of Example 2 (protein, UniProt P00760 24-246, looked up)
Serine protease 1: IVGGYTCGANTVPYQVSLNSGYHFCGGSLINSQWVVSAAHCYKSGIQVRLGEDNINVVEGNEQFISASKSIVHPSYNSNTLNNDIMLIKLKSAASLNSRVASISLPTSCASAGTQCLISGWGNTKSSGTSYPDVLKCLKAPILSDSSCKSAYPGQITSNMFCAGYLEGGKDSCQGDSGGPVVCSGKLQGIVSWGSGCAQKNKPGVYTKVCNYVSWIKQTIASN
modifications: TPCK-treated, immobilized on agarose resin
(GR)10 [1]; 5 min reaction
  (GR)1 (normalized uM): 1117.3 µM
  (GR)2 (normalized uM): 0.0 µM
  (GR)3 (normalized uM): 0.0 µM
  (GR)4 (normalized uM): 0.0 µM
  (GR)5 (normalized uM): 0.0 µM
  (GR)6 (normalized uM): 0.0 µM
  (GR)8 (normalized uM): 0.0 µM
  (GR)10 (normalized uM): 0.0 µM
(GR)10 [1]; 60 min reaction
  (GR)1 (normalized uM): 1197.4 µM
  (GR)2 (normalized uM): 0.0 µM
  (GR)3 (normalized uM): 0.0 µM
  (GR)4 (normalized uM): 0.0 µM
  (GR)5 (normalized uM): 0.0 µM
  (GR)6 (normalized uM): 0.0 µM
  (GR)8 (normalized uM): 0.0 µM
  (GR)10 (normalized uM): 0.0 µM
(GR)10 [2]; Immobilized - 5 min reaction
  (GR)1: 301.2 µM
  (GR)2: 0.0 µM
  (GR)3: 0.0 µM
  (GR)4: 0.0 µM
  (GR)5: 0.0 µM
  (GR)6: 0.0 µM
  (GR)8: 0.0 µM
  (GR)10: 0.0 µM
(GR)10 [2]; immobilized - 60 min reaction
  (GR)1: 308.6 µM
  (GR)2: 0.0 µM
  (GR)3: 0.0 µM
  (GR)4: 0.0 µM
  (GR)5: 0.0 µM
  (GR)6: 0.0 µM
  (GR)8: 0.0 µM
  (GR)10: 0.0 µM
(GR)10 [2]; resin wash from 5 min reaction
  (GR)1: 131.9 µM
  (GR)2: 0.0 µM
  (GR)3: 0.0 µM
  (GR)4: 0.0 µM
  (GR)5: 0.0 µM
  (GR)6: 0.0 µM
  (GR)8: 0.0 µM
  (GR)10: 0.0 µM
(GR)10 [2]; [3]
  (GR)1: 145.7 µM
  (GR)2: 0.0 µM
  (GR)3: 0.0 µM
  (GR)4: 0.0 µM
  (GR)5: 0.0 µM
  (GR)6: 0.0 µM
  (GR)8: 0.0 µM
  (GR)10: 0.0 µM
